Where no end group is shown, it is not given here.
B1: PTENz14 (structured_DNA)
DNA: CGGAATTCCGAGCGTGGGCGTGAGCCCTAAACACAAGTCCGCAGGGGTGTGGTAATATTCGCAGTTGTGTGTACGCCCACGCTCGAG
B2: PTENz7 (structured_DNA)
DNA: CGGAATTCCGAGCGTGGGCGTGGTCATACCGCGCCTATCGAACTCGCCACTCGCGTGCAGCTCTGTGTAGGTACGCCCACGCTCGAG

Columns and labels:
[1] = biological target: T1, GST-PTEN (amino-terminal phosphatase domain) (Homo sapiens, UniProt P60484 1-200); assay: filter binding, Scatchard; data not shown; Filter binding: 50 mM Tris (pH not given), 1 h, 40 µl, protein 0.5 mg/ml (Fig. 2E: GST-PTEN 25 µM), PBS washes; co-precipitation 1 h at room temperature, 1 µM aptamer; pull-down from homogenate with 250 nM aptamer, salmon sperm DNA, RIPA (1:2)/PBS washes; blots in PBS-BSA 2%; conditions: protein: recombinant; tags: GST (N-terminal, pGEX2T); label: 5'-biotin or 32P (assay dependent); hairpin; 13 bp stem from the constant regions
PTEN peptide 33-47 amide [2] = biological target: T2, PTEN peptide 33-47 amide (human and mouse (same sequence), UniProt P60484); assay: co-precipitation on antibody-Sepharose, real-time PCR; peptide bound to anti-PTEN antiserum; 1.8e11 molecules bound; Filter binding: 50 mM Tris (pH not given), 1 h, 40 µl, protein 0.5 mg/ml (Fig. 2E: GST-PTEN 25 µM), PBS washes; co-precipitation 1 h at room temperature, 1 µM aptamer; pull-down from homogenate with 250 nM aptamer, salmon sperm DNA, RIPA (1:2)/PBS washes; blots in PBS-BSA 2%; conditions: tags: C-terminal amide; label: 5'-biotin or 32P (assay dependent); hairpin; 13 bp stem from the constant regions
T2 chain: IAMGFPAERLEGVYR-NH2

PTEN peptide 33-47 amide [3] = biological target: T2, PTEN peptide 33-47 amide; assay: filter binding; Filter binding: 50 mM Tris (pH not given), 1 h, 40 µl, protein 0.5 mg/ml (Fig. 2E: GST-PTEN 25 µM), PBS washes; co-precipitation 1 h at room temperature, 1 µM aptamer; pull-down from homogenate with 250 nM aptamer, salmon sperm DNA, RIPA (1:2)/PBS washes; blots in PBS-BSA 2%; conditions: tags: C-terminal amide; label: 5'-biotin or 32P (assay dependent); hairpin; 13 bp stem from the constant regions
[4] = biological target: T1, GST-PTEN (amino-terminal phosphatase …); assay: filter binding, Scatchard; called affinity constant; Filter binding: 50 mM Tris (pH not given), 1 h, 40 µl, protein 0.5 mg/ml (Fig. 2E: GST-PTEN 25 µM), PBS washes; co-precipitation 1 h at room temperature, 1 µM aptamer; pull-down from homogenate with 250 nM aptamer, salmon sperm DNA, RIPA (1:2)/PBS washes; blots in PBS-BSA 2%; conditions: protein: recombinant; tags: GST (N-terminal, pGEX2T); label: 5'-biotin or 32P (assay dependent); hairpin; 13 bp stem from the constant regions

T1 sequence (P60484 1-200): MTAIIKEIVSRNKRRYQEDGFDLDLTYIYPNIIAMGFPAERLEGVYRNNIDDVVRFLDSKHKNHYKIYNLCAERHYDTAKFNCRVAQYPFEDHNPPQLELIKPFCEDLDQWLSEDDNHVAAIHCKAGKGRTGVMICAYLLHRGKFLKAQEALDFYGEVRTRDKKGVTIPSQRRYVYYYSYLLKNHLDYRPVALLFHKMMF

Row | Binder | Kd [1] [nM] | binding signal (PTEN peptide 33-47 amide [2]) [fold over background] | binding result (PTEN peptide 33-47 amide [3]) | Kd [4] [nM]
1 | B1 | 54 | ~20 |  | 
2 | B2 |  |  | binds | 75

Source: paper PMC3084716, “Different Conformations of Phosphatase and Tensin Homolog, Deleted on Chromosome 10 (PTEN) Protein within the Nucleus and Cytoplasm of Neurons”
